The target in one series is T1, D(R266A)X2 (UniProt O75771;O43543 1-328;1-280, R266A).
T1 sequence 1: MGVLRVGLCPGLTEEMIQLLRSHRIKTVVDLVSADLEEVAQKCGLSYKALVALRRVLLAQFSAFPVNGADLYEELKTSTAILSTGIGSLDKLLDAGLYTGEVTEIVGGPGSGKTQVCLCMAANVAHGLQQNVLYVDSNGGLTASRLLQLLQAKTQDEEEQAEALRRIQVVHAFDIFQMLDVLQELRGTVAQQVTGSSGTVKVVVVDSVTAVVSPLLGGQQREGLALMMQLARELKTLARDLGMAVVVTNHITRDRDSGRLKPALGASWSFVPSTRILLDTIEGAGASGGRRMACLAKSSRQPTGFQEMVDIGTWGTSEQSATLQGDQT
T1 sequence 2: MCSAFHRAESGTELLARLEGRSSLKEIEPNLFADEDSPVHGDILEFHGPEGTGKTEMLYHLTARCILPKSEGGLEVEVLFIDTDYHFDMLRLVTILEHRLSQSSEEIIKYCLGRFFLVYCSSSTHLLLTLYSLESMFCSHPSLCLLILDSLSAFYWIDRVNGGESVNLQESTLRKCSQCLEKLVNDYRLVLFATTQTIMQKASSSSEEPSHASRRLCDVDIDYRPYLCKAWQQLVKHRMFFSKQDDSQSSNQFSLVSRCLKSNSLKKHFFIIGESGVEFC
Put plainly: EMSA; not significantly affected; EMSA: 20 mM Tris-HCl pH 7.5, 2 mM MgCl2, 2 mM ATP, 37 C, 20 nM DNA, glutaraldehyde fixation; stopped-flow: 25 mM Tris-HCl pH 7.5, 5 mM MgCl2, 50 mM KCl, 2 mM ATP, 0.5 mM EDTA, 10% glycerol, 37 C; BLI: 50 mM Tris-HCl pH 7.5, 2 mM ATP, 50 mM KCl, 5 mM MgCl2, 0.05% Tween 20, room temperature. The settings on record: protein: recombinant; copies: 1;1; label: internal FITC; reversed fork of 4 strands with ssDNA overhang. Background: Mobility shift assays separate free from complexed probe on a gel.

The next series addresses T2, DX2(R159A) (UniProt O75771;O43543 1-328;1-280, R159A).
T2 sequence 1: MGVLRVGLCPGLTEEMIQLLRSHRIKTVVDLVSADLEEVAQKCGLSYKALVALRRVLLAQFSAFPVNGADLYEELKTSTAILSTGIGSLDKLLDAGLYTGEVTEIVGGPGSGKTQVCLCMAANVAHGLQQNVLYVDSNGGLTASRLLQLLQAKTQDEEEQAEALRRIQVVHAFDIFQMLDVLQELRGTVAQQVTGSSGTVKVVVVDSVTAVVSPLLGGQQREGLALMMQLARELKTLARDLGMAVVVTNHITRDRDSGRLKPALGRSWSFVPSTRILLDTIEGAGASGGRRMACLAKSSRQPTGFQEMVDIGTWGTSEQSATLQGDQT
T2 sequence 2: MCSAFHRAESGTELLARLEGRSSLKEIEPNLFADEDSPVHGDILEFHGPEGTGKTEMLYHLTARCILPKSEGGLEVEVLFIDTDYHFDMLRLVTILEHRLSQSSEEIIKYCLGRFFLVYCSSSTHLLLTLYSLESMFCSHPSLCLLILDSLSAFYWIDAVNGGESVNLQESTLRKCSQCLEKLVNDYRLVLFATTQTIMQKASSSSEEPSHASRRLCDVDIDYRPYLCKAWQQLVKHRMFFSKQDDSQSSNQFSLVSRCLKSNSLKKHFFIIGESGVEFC
The series is described as above. The conditions noted are these: protein: recombinant; copies: 1;1; label: internal FITC; reversed fork of 4 strands with ssDNA overhang.

Series [1] has as its target T3, BCDX2 complex (human, UniProt O15315;O43502;O75771;O43543 1-384;1-376;1-328;1-280).
T3 sequence 1: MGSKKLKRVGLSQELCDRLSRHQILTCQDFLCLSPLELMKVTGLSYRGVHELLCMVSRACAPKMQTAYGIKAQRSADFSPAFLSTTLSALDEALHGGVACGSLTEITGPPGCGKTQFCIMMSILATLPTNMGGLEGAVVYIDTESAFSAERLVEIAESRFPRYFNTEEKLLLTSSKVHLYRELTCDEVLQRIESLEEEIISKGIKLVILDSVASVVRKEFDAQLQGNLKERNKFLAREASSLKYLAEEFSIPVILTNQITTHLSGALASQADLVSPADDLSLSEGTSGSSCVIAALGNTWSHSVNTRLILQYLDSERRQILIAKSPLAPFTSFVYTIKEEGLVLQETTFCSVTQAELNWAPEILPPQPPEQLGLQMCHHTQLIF
T3 sequence 2: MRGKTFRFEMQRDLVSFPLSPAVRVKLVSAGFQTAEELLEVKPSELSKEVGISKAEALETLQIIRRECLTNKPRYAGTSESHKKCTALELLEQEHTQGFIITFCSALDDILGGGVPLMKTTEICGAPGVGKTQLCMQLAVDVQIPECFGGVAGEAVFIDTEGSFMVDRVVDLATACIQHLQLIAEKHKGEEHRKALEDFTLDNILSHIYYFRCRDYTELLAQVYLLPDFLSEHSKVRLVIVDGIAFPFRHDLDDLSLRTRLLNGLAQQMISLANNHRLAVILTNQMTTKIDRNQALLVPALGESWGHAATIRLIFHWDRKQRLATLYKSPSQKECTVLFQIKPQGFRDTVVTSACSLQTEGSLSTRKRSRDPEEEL
T3 sequence 3: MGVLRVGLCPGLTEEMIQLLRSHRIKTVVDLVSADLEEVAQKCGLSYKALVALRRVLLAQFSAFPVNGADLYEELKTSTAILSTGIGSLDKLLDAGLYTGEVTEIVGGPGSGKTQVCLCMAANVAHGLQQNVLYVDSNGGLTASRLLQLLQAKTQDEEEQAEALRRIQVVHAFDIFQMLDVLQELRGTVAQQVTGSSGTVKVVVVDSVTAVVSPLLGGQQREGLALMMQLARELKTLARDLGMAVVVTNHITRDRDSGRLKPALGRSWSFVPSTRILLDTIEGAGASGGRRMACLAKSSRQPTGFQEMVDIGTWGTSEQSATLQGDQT
T3 sequence 4: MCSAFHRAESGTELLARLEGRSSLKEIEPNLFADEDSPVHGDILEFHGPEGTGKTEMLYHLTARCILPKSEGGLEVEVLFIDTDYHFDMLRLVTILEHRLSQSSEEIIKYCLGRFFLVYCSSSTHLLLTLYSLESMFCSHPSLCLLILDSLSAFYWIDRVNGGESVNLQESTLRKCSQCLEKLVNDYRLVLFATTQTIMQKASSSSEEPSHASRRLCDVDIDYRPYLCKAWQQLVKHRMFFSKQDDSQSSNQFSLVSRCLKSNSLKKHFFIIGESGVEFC
Put plainly: EMSA; strong binding; EMSA: 20 mM Tris-HCl pH 7.5, 2 mM MgCl2, 2 mM ATP, 37 C, 20 nM DNA, glutaraldehyde fixation; stopped-flow: 25 mM Tris-HCl pH 7.5, 5 mM MgCl2, 50 mM KCl, 2 mM ATP, 0.5 mM EDTA, 10% glycerol, 37 C; BLI: 50 mM Tris-HCl pH 7.5, 2 mM ATP, 50 mM KCl, 5 mM MgCl2, 0.05% Tween 20, room temperature. The conditions noted are these: protein: recombinant; tags: Strep-tag and His-tag (XRCC2 N-terminal His); copies: 1;1;1;1; label: internal FITC; reversed fork of 4 strands with ssDNA overhang.

The target in series [2] is T4, DX2 complex (human, UniProt O75771;O43543 1-328;1-280).
T4 sequence 1: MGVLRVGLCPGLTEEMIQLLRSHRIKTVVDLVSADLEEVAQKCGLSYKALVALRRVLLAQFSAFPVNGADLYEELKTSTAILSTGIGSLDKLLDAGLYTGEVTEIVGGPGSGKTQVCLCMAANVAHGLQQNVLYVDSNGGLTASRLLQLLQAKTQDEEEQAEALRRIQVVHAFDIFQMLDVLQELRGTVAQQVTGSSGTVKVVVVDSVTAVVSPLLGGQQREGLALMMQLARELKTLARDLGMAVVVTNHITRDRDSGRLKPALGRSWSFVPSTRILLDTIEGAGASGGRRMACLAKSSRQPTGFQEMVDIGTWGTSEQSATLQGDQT
T4 sequence 2: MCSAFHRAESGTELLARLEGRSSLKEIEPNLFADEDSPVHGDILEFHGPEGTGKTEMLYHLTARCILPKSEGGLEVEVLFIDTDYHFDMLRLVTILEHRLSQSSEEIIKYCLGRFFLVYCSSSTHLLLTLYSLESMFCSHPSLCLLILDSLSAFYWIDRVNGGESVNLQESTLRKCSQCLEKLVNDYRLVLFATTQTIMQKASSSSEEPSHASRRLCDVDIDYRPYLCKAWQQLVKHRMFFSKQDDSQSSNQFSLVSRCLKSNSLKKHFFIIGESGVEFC
The description is as above. The settings on record: protein: recombinant; tags: His-tag; copies: 1;1; label: internal FITC; reversed fork of 4 strands with ssDNA overhang.

The next series concerns the target T5, BC complex (human, UniProt O15315;O43502 1-384;1-376).
T5 sequence 1: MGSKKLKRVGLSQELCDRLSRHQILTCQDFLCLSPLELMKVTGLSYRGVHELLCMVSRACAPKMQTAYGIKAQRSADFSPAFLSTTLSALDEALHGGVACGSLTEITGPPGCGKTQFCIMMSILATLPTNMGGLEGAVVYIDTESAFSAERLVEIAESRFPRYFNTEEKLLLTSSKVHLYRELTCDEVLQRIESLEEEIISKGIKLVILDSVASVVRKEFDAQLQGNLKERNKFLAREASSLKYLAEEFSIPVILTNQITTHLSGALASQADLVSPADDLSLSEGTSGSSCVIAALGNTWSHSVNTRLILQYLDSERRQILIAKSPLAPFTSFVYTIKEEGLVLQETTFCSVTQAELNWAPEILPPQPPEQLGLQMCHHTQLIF
T5 sequence 2: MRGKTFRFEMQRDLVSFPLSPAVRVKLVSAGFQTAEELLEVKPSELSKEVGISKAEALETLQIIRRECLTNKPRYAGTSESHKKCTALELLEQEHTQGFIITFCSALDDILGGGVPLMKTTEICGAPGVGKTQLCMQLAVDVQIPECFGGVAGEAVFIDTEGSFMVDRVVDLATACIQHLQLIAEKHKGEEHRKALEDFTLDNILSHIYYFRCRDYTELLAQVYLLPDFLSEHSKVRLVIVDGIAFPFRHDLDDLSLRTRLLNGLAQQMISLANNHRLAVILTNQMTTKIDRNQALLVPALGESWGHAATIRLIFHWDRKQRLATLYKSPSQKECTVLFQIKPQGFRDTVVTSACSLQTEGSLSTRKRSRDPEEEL
Put plainly: EMSA; EMSA: 20 mM Tris-HCl pH 7.5, 2 mM MgCl2, 2 mM ATP, 37 C, 20 nM DNA, glutaraldehyde fixation; stopped-flow: 25 mM Tris-HCl pH 7.5, 5 mM MgCl2, 50 mM KCl, 2 mM ATP, 0.5 mM EDTA, 10% glycerol, 37 C; BLI: 50 mM Tris-HCl pH 7.5, 2 mM ATP, 50 mM KCl, 5 mM MgCl2, 0.05% Tween 20, room temperature. The settings on record: protein: recombinant; tags: Strep-tag; copies: 1;1; label: 3' FITC.

Series [3] addresses T4, DX2 complex. The series is described as above. The settings on record: protein: recombinant; tags: His-tag; copies: 1;1; label: 3' FITC.
The target of series [4] is T3, BCDX2 complex. Put plainly: EMSA; ATP, Mg2+; EMSA: 20 mM Tris-HCl pH 7.5, 2 mM MgCl2, 2 mM ATP, 37 C, 20 nM DNA, glutaraldehyde fixation; stopped-flow: 25 mM Tris-HCl pH 7.5, 5 mM MgCl2, 50 mM KCl, 2 mM ATP, 0.5 mM EDTA, 10% glycerol, 37 C; BLI: 50 mM Tris-HCl pH 7.5, 2 mM ATP, 50 mM KCl, 5 mM MgCl2, 0.05% Tween 20, room temperature. The conditions noted are these: protein: recombinant; tags: Strep-tag and His-tag (XRCC2 N-terminal His); copies: 1;1;1;1; label: 3' FITC.

Series [5] has as its target T3, BCDX2 complex. Put plainly: EMSA; stronger than ssDNA; EMSA: 20 mM Tris-HCl pH 7.5, 2 mM MgCl2, 2 mM ATP, 37 C, 20 nM DNA, glutaraldehyde fixation; stopped-flow: 25 mM Tris-HCl pH 7.5, 5 mM MgCl2, 50 mM KCl, 2 mM ATP, 0.5 mM EDTA, 10% glycerol, 37 C; BLI: 50 mM Tris-HCl pH 7.5, 2 mM ATP, 50 mM KCl, 5 mM MgCl2, 0.05% Tween 20, room temperature. The settings on record: protein: recombinant; tags: Strep-tag and His-tag (XRCC2 N-terminal His); copies: 1;1;1;1; label: 3' FITC on strand 1; fork 1:2.

We go through 3 molecules from paper PMC11514458.

B1: RVF1 (mixed)
DNA 1: TGCCGAATTCTACCAGTGCCAGTGATGGACATCTTTGCCCACGTTGACCC
DNA 2: TGGGTCAACGTGGGCAAAGATGTCCTAGCAATGTAATCGTCTATGACGTT
DNA 3: TCGGATCCTCTAGACAGCTCCATGATCACTGGCACTGGTAGAATTCGGC
DNA 4: CAACGTCATAGACGATTACATTGCT
modifications: internal FITC at Z after nt 20 of strand 3
With B1, the binding result with D(R266A)X2, with DX2(R159A), with BCDX2 complex [1] and in the series with DX2 complex [2] was “binds” throughout.

AGCTACCATGCCTGCACGAATTAAGCAATTCGTAATCATGGTCATAGCT (ssDNA) [ssDNA 49mer]: the binding result in the series with BC complex is reported as “no binding”; in the series with DX2 complex [3], “no binding”; in the series with BCDX2 complex [4], “binds”.

B2: Y-form (mixed)
DNA 1: AGCTACCATGCCTGCACGAATTAAGCAATTCGTAATCATGGTCATAGCT
DNA 2: AGCTATGACCATGATTACGAATTGCTTGGAATCCTGACGAACTGTAG
With B2, the binding result in the series with BCDX2 complex [5] is on record as “binds”.
